From patent US20240383984A1 (Genentech, published 2024)
Values belong to the molecule of their own block, whether it stands above or below them.

Assays:
[1] = biological target: truncated FcRH5 (deletion of amino acids 1-744) with N-terminal gD tag, on cells (human) (UniProt Q96RD9); assay: cell-based or functional assay
[2] = biological target: T1, human FcRH5 protein fragment (soluble) (human, UniProt Q96RD9 16-851); assay: SPR (BIACORE), antibody as ligand, HuFcRH5 as sample in stepwise injections, 25 °C, 1:1 binding model
T1 construct: whole entry named; also called soluble human FcRH5; Human FcRH5 (BIACORE analyte)
T1 sequence: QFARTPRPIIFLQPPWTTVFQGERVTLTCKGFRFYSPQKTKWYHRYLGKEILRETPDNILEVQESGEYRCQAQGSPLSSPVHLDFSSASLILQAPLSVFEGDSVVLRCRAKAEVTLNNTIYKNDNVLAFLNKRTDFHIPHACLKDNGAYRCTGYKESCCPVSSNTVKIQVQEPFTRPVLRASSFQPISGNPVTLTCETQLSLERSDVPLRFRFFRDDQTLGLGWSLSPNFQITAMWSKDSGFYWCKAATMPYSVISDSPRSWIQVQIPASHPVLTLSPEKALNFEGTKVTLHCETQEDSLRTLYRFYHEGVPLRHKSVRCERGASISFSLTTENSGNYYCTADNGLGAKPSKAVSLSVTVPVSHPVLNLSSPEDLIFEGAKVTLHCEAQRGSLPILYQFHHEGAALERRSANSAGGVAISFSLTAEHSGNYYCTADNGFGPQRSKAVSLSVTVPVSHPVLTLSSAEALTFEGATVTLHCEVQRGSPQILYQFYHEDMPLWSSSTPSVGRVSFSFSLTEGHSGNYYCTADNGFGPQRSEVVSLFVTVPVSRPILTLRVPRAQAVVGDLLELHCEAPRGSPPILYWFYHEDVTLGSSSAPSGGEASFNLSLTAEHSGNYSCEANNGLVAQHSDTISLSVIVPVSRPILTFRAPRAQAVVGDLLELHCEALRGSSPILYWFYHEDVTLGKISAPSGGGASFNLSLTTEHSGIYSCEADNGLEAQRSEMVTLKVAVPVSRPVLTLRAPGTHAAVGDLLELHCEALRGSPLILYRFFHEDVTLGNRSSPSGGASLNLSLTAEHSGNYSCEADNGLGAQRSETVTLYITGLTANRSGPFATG

human CD3ε [3] = biological target: T2, human CD3ε (human, UniProt P07766 23-126, limits assumed); assay: ELISA on CD3
T2 construct: also called hCD3ε
T2 sequence (P07766 23-126 limits assumed): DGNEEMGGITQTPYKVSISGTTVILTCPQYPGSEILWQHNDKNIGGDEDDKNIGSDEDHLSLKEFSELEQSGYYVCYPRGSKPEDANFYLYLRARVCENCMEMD

[4] = biological target: T1, human FcRH5 protein fragment (soluble); assay: ELISA on FcRH5 (form of the coated FcRH5 not given)
human CD3ε [5] = biological target: T2, human CD3ε; assay: BIACORE, monovalent
human CD3ε [6] = biological target: T2, human CD3ε; assay: assay not stated
[7] = biological target: T1, human FcRH5 protein fragment (soluble); assay: BIACORE
[8] = biological target: T3, cynomolgus FcRH5 protein fragment (soluble) (cynomolgus monkey); assay: BIACORE
T3 construct: whole entry named; also called Cyno FcRH5 (BIACORE analyte)
T3 chain: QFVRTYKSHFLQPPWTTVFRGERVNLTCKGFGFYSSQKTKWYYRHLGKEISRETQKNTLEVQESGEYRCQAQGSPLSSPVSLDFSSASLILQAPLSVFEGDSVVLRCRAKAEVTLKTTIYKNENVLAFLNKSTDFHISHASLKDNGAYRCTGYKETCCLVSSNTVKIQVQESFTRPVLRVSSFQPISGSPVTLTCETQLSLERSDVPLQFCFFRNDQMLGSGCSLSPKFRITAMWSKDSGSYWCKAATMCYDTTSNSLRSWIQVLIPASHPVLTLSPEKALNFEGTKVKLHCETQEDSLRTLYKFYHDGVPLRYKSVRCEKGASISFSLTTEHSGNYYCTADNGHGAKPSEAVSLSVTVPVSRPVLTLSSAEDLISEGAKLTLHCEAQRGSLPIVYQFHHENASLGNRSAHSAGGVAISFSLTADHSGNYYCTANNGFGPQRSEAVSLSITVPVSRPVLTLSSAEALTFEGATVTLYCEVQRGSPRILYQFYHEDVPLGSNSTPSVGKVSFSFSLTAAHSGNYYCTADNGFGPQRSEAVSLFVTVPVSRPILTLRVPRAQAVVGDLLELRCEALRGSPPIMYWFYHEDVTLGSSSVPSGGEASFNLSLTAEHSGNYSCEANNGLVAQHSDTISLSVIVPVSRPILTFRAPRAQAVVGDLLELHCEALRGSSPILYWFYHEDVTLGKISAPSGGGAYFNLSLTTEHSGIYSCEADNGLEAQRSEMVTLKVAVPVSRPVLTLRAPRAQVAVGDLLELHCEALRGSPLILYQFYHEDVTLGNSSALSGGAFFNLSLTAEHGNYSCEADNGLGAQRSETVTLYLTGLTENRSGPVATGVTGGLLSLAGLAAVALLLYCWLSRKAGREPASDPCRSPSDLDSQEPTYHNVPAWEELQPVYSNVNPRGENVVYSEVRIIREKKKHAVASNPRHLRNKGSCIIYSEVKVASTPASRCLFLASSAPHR

[9] = biological target: T3, cynomolgus FcRH5 protein fragment …; assay: SPR (BIACORE), Cyno FcRH5, 1:1 binding model
[10] = biological target: T1, human FcRH5 protein fragment (soluble); assay: SPR (BIACORE), Human FcRH5, 1:1 binding model
[11] = biological target: T1, human FcRH5 protein fragment (soluble); assay: SPR screening

Molecule: anti-gD/UCHT1.v9 TDB (bispecific antibody)
- target cell killing with the truncated FcRH5 construct, EC50 [1]: 0.19 nM

B2: bis-Fab B (bispecific antibody, V domains shown)
VH 1: EVQLVESGPGLVKPSETLSLTCTVSGFSLTRFGVHWVRQPPGKGLEWLGVIWRGGSTDYNAAFVSRLTISKDNSKNQVSLKLSSVTAADTAVYYCSNHYYGSSDYALDNWGQGTLVTVSS
VL 1: DIQMTQSPSSLSASVGDRVTITCKASQDVRNLVVWFQQKPGKAPKLLIYSGSYRYSGVPSRFSGSGSGTDFTLTISSLQPEDFATYYCQQHYSPPYTFGQGTKVEIK
VH 2: EVQLVQSGAEVKKPGASVKVSCKASGFTFTSYYIHWVRQAPGQGLEWIGWIYPENDNTKYNEKFKDRVTITADTSTSTAYLELSSLRSEDTAVYYCARDGYSRYYFDYWGQGTLVTVSS
VL 2: DIVMTQSPDSLAVSLGERATICCKSSQSLLNSRTRKNYLAWYQQKPGQSPKLLIYWTSTRKSGVPDRFSGSGSGTDFTLTISSLQAEDVAVYYCKQSFILRTFGQGTKVEIK
notes: bis-Fab: 1G7.v85 Fab (HC A114C, constant part) crosslinked to 38E4.v1 Fab (LC N22C)
- EC50 (read off the curve) (human CD3ε [3]): ~7 ng/mL
- EC50 (read off the curve) [4]: ~10 ng/mL

B3: 38E4.v1 (antibody, V domains shown)
VH: EVQLVQSGAEVKKPGASVKVSCKASGFTFTSYYIHWVRQAPGQGLEWIGWIYPENDNTKYNEKFKDRVTITADTSTSTAYLELSSLRSEDTAVYYCARDGYSRYYFDYWGQGTLVTVSS
VL: DIVMTQSPDSLAVSLGERATINCKSSQSLLNSRTRKNYLAWYQQKPGQSPKLLIYWTSTRKSGVPDRFSGSGSGTDFTLTISSLQAEDVAVYYCKQSFILRTFGQGTKVEIK
notes: humanized anti-CD3ε; also called anti-CD3 arm 38E4.v1
- Kd (human CD3ε [5]): 0.5 nM
- EC50 (human CD3ε [6]): 1 nM

B4: 40G5c (antibody, V domains shown)
VH: EVQLVQSGAEVKKPGASVKVSCKASGYTFTNYYIHWVRQAPGQGLEWIGWIYPGDGNTKYNEKFKGRATLTADTSTSTAYLELSSLRSEDTAVYYCARDSYSNYYFDYWGQGTLVTVSS
VL: DIVMTQSPDSLAVSLGERATINCKSSQSLLNSRTRKNYLAWYQQKPGQPPKLLIYWASTRESGVPDRFSGSGSGTDFTLTISSLQAEDVAVYYCTQSFILRTFGQGTKVEIK
notes: humanized anti-CD3ε; also called hu40G5c
- Kd (human CD3ε [5]): 51 nM
- EC50 (human CD3ε [6]): 13 nM

B5: 38E4.v11 (antibody, V domains shown)
VH: EVQLVQSGAEVKKPGASVKVSCKASGFTFTSYYIHWVRQAPGQGLEWIGWIYPENDNTKYNEKFKDRVTITADTSTSTAYLELSSLRSEDTAVYYCARDGYSRYYFDYWGQGTLVTVSS
VL: DIVMTQSPDSLAVSLGERATINCKSSQSLLNSRTRKNYLAWYQQKPGQSPKLLIYWTSTRKSGVPDRFSGSGSGTDFTLTISSLQAEDVAVYYCTQSFILRTFGQGTKVEIK
notes: humanized anti-CD3ε
- EC50 (human CD3ε [6]): 0.05 nM

B7: F(ab′)2 A (bispecific antibody, V domains shown)
VH 1: EVQLVESGPGLVKPSETLSLTCTVSGFSLTRFGVHWVRQPPGKGLEWLGVIWRGGSTDYNAAFVSRLTISKDNSKNQVSLKLSSVTAADTAVYYCSNHYYGSSDYALDNWGQGTLVTVSS
VL 1: DIQMTQSPSSLSASVGDRVTITCKASQDVRNLVVWFQQKPGKAPKLLIYSGSYRYSGVPSRFSGSGSGTDFTLTISSLQPEDFATYYCQQHYSPPYTFGQGTKVEIK
VH 2: EVQLVQSGAEVKKPGASVKVSCKASGFTFTSYYIHWVRQAPGQGLEWIGWIYPENDNTKYNEKFKDRVTITADTSTSTAYLELSSLRSEDTAVYYCARDGYSRYYFDYWGQGTLVTVSS
VL 2: DIVMTQSPDSLAVSLGERATINCKSSQSLLNSRTRKNYLAWYQQKPGQSPKLLIYWTSTRKSGVPDRFSGSGSGTDFTLTISSLQAEDVAVYYCKQSFILRTFGQGTKVEIK
- EC50 (read off the curve) (human CD3ε [3]): ~0.7 ng/mL
- EC50 (read off the curve) [4]: ~50 ng/mL

Results, then the molecule that gave them:

- koff [2]: 0.00136 s⁻¹
- kon [2]: 1.08e+06 M⁻¹ s⁻¹
B1: h7D8.L1H2 (antibody)
heavy chain: EVQLVESGGGLVQPGGSLRLSCAVSGIDLSSYAMGWVRQAPGKGLEWIGTIGTGGTPYYASWAKGRFTISKDSSKNTVYLQMNSLRAEDTAVYFCARDMYTGSIYYDMWGQGTLVTVSS
light chain: DAQLTQSPSSLSASVGDRVTITCQSSQSVFNNAQLSWYQQKPGKPPKLLIYDTSNLASGVPSRFSGSGSGTDFTLTISSLQPEDFATYYCLGAYTDDADNAFGQGTKVEIK
notes: humanized, rabbit-derived anti-FcRH5 antibody; The sheet prints h7D8.L1H2* with an unexplained asterisk; also called hu7D8.L1H2; Hu7D8.L1H2

- Kd [7]: 1.1 nM
- Kd [8]: 8.1 nM
- Kd [9]: 8.08 nM
- koff [9]: 0.000417 s⁻¹
- kon [9]: 51600 M⁻¹ s⁻¹
- koff [10]: 0.000421 s⁻¹
- kon [10]: 395000 M⁻¹ s⁻¹
B6: hu1G7.v93/38E4.v1 TDB (bispecific antibody, V domains shown)
VH 1: EVQLVESGPGLVKPSETLSLTCTVSGFSTTRFGVHWVRQPPGKGLEWLGVIWRGGSTDYNAAFVSRLTISKDNSKNQVSLKLSSVTAADTAVYYCSNHYYGSPDYALDNWGQGTLVTVSS
VL 1: DIQMTQSPSSLSASVGDRVTITCKASQDVSNLVVWFQQKPGKAPKLLIYSGSYRYSGVPSRFSGSGSGTDFTLTISSLQPEDFATYYCQQHYSPPYTFGQGTKVEIK
VH 2: EVQLVQSGAEVKKPGASVKVSCKASGFTFTSYYIHWVRQAPGQGLEWIGWIYPENDNTKYNEKFKDRVTITADTSTSTAYLELSSLRSEDTAVYYCARDGYSRYYFDYWGQGTLVTVSS
VL 2: DIVMTQSPDSLAVSLGERATINCKSSQSLLNSRTRKNYLAWYQQKPGQSPKLLIYWTSTRKSGVPDRFSGSGSGTDFTLTISSLQAEDVAVYYCKQSFILRTFGQGTKVEIK
notes: knob-into-hole TDB; also called 1G7.v93 TDB

- average fold improvement in affinity [11]: 1.2 fold
B8: hu1G7.v1 with heavy chain L29T and S56T (antibody, V domains shown)
VH: EVQLVESGPGLVKPSETLSLTCTVSGFSTTRFGVHWVRQPPGKGLEWLGVIWRGGTTDYNAAFMSRLTISKDNSKNQVSLKLSSVTAADTAVYYCSNHYYGSSDYALDNWGQGTLVTVSS
VL: DIQMTQSPSSLSASVGDRVTITCKASQDVSNIVVWFQQKPGKSPKLLIYSASYRYTGVPSRFSGSGSGTDFTLTISSLQPEDFATYYCQQHYSSPYTFGQGTKVEIK
notes: also called L29T/S56T double mutant

- EC50 (read off the curve) (human CD3ε [3]): ~7 ng/mL
- EC50 (read off the curve) [4]: ~10 ng/mL
B9: bis-Fab D (bispecific antibody, V domains shown)
VH 1: EVQLVESGPGLVKPSETLSLTCTVSGFSLTRFGVHWVRQPPGKGLEWLGVIWRGGSTDYNAAFVSRLTISKDNSKNQVSLKLSSVTAADTAVYYCSNHYYGSSDYALDNWGQGTLVTVSS
VL 1: DIQMTQSPSSLSASVGDRVTITCKASQDVRNLVVWFQQKPGKAPKLLIYSGSYRYSGVPSRFSGSGSGTDFTLTISSLQPEDFATYYCQQHYSPPYTFGQGTKVEIK
VH 2: EVQLVQSGAEVKKPGASVKVSCKASGFTFTSYYIHWVRQAPGQGLEWIGWIYPENDNTKYNEKFKDRVTITADTSTSTAYLELSSLRSEDTAVYYCARDGYSRYYFDYWGQGTLVTVSS
VL 2: DIVMTQSPDSLAVSLGERATICCKSSQSLLNSRTRKNYLAWYQQKPGQSPKLLIYWTSTRKSGVPDRFSGSGSGTDFTLTISSLQAEDVAVYYCKQSFILRTFGQGTKVEIK
notes: bis-Fab: 1G7.v85 Fab (LC A149C, constant part) crosslinked to 38E4.v1 Fab (LC N22C)
